Laboratory results from paper PMC11115250.

Molecular target: PPARγ (plasmid-encoded, Addgene #8862) (UniProt P37238)

With “ZFP407 (plasmid-encoded, Origene cat. MR214555) (natural protein)” the PPRE luciferase reporter in 293T cells, PPARγ co-transfected with WT ZFP407 against PPARγ alone was over 2 fold.
